Experimental data from publication doi:10.1101/411223 (bioRxiv, 2018).

Experiments:
Kap121p = biological target: T1, Kap121p (S. cerevisiae, UniProt P32337 1-1089); assay: ITC
T1 sequence (looked up): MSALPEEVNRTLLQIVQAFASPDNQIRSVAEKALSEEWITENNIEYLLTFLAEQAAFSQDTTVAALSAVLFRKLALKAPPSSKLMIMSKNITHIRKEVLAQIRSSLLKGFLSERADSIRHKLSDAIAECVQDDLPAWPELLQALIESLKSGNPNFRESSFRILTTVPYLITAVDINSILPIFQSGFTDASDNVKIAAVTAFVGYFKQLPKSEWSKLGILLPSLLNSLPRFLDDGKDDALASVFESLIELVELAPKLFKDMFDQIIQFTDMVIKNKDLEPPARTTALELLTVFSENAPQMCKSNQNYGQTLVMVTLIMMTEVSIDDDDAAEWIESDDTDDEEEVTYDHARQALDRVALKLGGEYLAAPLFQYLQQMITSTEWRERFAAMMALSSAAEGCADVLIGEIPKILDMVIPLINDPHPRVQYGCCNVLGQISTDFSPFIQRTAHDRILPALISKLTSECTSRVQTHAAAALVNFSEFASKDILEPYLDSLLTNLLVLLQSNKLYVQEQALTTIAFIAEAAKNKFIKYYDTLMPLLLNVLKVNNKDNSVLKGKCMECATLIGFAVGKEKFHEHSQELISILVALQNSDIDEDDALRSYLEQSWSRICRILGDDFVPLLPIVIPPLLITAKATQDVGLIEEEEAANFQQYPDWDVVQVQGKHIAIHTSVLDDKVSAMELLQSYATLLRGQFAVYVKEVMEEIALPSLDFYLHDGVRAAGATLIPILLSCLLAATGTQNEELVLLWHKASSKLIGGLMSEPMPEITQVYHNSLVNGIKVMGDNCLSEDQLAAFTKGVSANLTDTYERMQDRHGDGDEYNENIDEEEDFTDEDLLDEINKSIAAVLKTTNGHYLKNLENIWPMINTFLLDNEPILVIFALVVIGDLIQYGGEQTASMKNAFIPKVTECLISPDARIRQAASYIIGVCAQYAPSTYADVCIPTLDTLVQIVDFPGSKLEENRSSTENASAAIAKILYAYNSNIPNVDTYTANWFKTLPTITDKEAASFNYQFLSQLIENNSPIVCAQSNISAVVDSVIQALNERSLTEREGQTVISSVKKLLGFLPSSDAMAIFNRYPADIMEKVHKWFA

AUC = biological target: the molecule itself; assay: AUC
Kap114p = biological target: T2, Kap114p (S. cerevisiae, UniProt P53067 1-1004); assay: AUC
T2 sequence (looked up): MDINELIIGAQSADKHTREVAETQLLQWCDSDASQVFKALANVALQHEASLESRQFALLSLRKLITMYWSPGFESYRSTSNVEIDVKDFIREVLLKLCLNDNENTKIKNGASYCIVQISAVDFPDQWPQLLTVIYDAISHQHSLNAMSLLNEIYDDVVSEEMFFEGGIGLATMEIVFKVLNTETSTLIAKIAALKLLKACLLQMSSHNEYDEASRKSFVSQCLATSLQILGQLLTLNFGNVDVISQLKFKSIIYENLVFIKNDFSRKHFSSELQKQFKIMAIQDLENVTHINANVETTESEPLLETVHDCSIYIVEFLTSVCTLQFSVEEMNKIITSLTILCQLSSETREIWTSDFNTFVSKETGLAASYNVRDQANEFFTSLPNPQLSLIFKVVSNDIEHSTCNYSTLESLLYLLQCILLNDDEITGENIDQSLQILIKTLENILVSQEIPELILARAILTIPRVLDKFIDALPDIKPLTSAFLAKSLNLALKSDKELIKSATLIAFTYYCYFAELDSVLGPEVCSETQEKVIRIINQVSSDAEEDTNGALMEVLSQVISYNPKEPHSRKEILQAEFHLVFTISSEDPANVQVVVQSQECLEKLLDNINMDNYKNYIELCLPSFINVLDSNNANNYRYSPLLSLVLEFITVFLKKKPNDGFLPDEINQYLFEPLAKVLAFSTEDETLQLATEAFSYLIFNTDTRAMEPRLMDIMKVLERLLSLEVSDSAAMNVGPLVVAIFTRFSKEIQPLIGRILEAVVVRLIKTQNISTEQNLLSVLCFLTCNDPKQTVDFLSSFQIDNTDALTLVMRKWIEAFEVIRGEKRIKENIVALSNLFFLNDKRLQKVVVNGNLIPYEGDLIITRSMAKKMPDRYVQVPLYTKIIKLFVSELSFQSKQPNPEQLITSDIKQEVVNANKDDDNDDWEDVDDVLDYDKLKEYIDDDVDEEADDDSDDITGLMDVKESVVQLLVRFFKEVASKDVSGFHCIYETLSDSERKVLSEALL

- Kd (Kap121p): ~15 µM
- stoichiometry N (Kap114p): 1
B1: yTBP (61-240) (domain or fragment, S. cerevisiae, UniProt P13393 61-240, looked up)
chain: SGIVPTLQNIVATVTLGCRLDLKTVALHARNAEYNPKRFAAVIMRIREPKTTALIFASGKMVVTGAKSEDDSKLASRKYARIIQKIGFAAKFTDFKIQNIVGSCDVKFPIRLEGLAFSHGTFSSYEPELFPGLIYRMVKPKIVLLIFVSGKIVLTGAKQREEIYQAFEAIYPVLSEFRKM
- stoichiometry N (AUC): 2
